These results are taken from paper PMC4268493.

The assay deals with TNF-FLAG (UniProt P01375). The experiment in a line: SPR.
UniProt P01375, sequence (P01375 whole entry): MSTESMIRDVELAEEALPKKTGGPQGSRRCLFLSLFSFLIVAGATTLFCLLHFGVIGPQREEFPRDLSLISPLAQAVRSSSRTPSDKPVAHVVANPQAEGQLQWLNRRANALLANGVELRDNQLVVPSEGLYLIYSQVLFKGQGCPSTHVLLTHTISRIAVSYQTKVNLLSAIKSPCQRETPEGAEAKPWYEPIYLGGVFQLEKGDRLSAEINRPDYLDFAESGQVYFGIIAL

As to “Δ6-TNFR1-Fc fusion protein (from UniProt P19438-4 30-183)”, the dissociation constant (Kd) (as a rule, the concentration at which binding is half-saturated) stood at 15.6 nM.
